From publication PMC5612115 come the findings set out here.

The target in assay [1] is LT5.J4b12C SOSIP.664 trimeric Env (HIV-1 B/C recombinant, soluble gp140) (HIV-1). Put plainly: negative-stain EM.
The next assay deals with His6-tagged sCD4 (D1-D2). Put plainly: BLI.

For the substance “LT5.J4b12C SOSIP.664 trimeric Env (HIV-1 B/C recombinant, soluble gp140) (complex)”, the stoichiometry N in assay [1] came to 3. The fold lower affinity than BG505 SOSIP.664 in the assay with His6-tagged sCD4 (D1-D2) is 3 fold.

The stoichiometry N is the number of molecules, sites or subunits per partner or assembly.
